# Test results: patent publication US20250333749A1, “INDUCIBLE PROMOTER, VECTOR AND HOST CELL BASED THEREON” (JOINT STOCK COMPANY «BIOCAD», priority 2021, published 2025)
# B1: IL10: Recombinant human IL10 used as an activator (protein)
# chain: SPGQGTQSENSCTHFPGNLPNMLRDLRDAFSRVKTFFQMKDQLDNLLLKESLLEDFKGYLGCQALSEMIQFYLEEVMPQAENQDPDIKAHVNSLGENLKTLRLRLRRCHRFLPCENKSKAVEQVKNAFNKLQEKGIYKAMSEFDIFINYIEAYMTMKIRN
# B2: GAS6: the AXL ligand GAS6; activator of AXL-dependent cell signaling (protein)
# chain: AFQVFEEAKQGHLERECVEELCSREEAREVFENDPETDYFYPRYLDCINKYGSPYTKNSGFATCVQNLPDQCTPNPCDRKGTQACQDLMGNFFCLCKAGWGGRLCDKDVNECSQENGGCLQICHNKPGSFHCSCHSGFELSSDGRTCQDIDECADSEACGEARCKNLPGSYSCLCDEGFAYSSQEKACRDVDECLQGRCEQVCVNSPGSYTCHCDGRGGLKLSQDMDTCEDILPCVPFSVAKSVKSLYLGRMFSGTPVIRLRFKRLQPTRLVAEFDFRTFDPEGILLFAGGHQDSTWIVLALRAGRLELQLRYNGVGRVTSSGPVINHGMWQTISVEELARNLVIKVNRDAVMKIAVAGDLFQPERGLYHLNLTVGGIPFHEKDLVQPINPRLDGCMRSWNWLNGEDTTIQETVKVNTRMQCFSVTERGSFYPGSGFAFYSLDYMRTPLDVGTESTWEVEVVAHIRPAADTGVLFALWAPDLRAVPLSVALVDYHSTKKLKKQLVVLAVEHTALALMEIKVCDGQEHVVTVSLRDGEATLEVDGTRGQSEVSAAQLQERLAVLERHLRSPVLTFAGGLPDVPVTSAPVTAFYRGCMTLEVNRRLLDLDEAAYKHSDITAHSCPPVEPAAA
# Experiments:
# [1] = test system: HEK293 Nf-kB reporter line; assay: Activation of HEK293 Nf-kB reporter line by PMA (luciferase); assay type: cell-based; settings: 24 hours incubation; FIG. 5
# Description: (§1) We used a PMA activator to screen clonal reporter lines. This agent directly effects protein kinase C, thus triggering signaling cascades that activate the reporter gene expression (https://doi.org/10.1007/s11373-005-1210-5; doi: 10.1093/carcin/bgm261). To determine the optimal dose of PMA, we conducted experiments involving activation of the HEK293 Nf-kB reporter line. Cells were seeded in a white 96-well culture plate for adhesion cultures at 3*10^5 cells per well, and PMA activator was added at concentrations indicated in the graph up to 150 μl in a well. All solutions were prepared in DMEM growth medium supplemented with 10% fetal bovine serum, 2 mM L-glutamine and 10 μg/ml gentamicin. The plate was incubated for 24 hours at 37° C. in a humid atmosphere in the presence of 5% CO2. Following incubation, the wells were drained, and 100 μl of luciferin substrate with a lysing component was added, the plate was left in the dark for 10 minutes, after which the luminescence level was detected using a plate reader using the SparkControl V2.1 software package (Tecan, Austria).
# [2] = biological target: AXL receptor expressed on HEK293 reporter cells (HEK293_STAT3-STAT5-AP1_FLuc_AXL; HEK293_AXL_STAT3-STAT5-AP1_FLuc) (UniProt P30530); assay: cell-based or functional assay
# Sequence of UniProt P30530 (P30530 26-894 limits assumed): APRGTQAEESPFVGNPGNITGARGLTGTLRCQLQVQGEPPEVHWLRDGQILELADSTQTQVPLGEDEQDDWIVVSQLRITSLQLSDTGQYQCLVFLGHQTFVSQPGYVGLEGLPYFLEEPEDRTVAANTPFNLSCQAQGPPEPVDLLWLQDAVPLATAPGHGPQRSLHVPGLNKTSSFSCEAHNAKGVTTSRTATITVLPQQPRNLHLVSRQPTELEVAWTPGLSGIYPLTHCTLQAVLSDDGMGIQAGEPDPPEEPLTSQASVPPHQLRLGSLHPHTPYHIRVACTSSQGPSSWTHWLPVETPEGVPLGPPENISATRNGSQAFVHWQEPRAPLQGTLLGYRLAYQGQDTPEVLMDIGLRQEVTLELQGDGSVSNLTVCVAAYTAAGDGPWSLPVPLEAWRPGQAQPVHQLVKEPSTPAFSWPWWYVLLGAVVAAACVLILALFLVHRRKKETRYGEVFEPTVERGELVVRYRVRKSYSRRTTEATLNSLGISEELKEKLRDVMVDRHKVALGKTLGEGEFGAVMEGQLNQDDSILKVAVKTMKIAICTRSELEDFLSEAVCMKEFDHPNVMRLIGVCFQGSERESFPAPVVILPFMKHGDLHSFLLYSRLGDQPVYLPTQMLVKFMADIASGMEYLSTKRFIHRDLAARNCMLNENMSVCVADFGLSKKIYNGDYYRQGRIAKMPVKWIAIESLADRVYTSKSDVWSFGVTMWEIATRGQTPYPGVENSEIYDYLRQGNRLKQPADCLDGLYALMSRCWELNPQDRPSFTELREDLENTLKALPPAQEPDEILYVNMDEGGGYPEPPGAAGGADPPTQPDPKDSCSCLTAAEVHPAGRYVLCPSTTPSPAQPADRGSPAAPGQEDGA
# [3] = test system: HEK293-STAT3-STAT5-AP1_FLuc_IL10R cells (IL-10 receptor); assay: IL10 activity determination test (luciferase expression activation); assay type: cell-based, human; settings: various concentrations of IL10; FIG. 8
# Description: as §1
# To evaluate the reporter line in a specific cell test, we expressed the IL-10 receptor onto the surface of the reporter cells. To this end, the HEK293_STAT3-STAT5-AP1_FLuc reporter cell line produced in Example 4 was transfected with plasmid vectors encoding IL-10 receptor subunits produced in Example 2. […]
# [4] = test system: HEK293_AXL_STAT3-STAT5-AP1 cells (AXL overexpresser); assay: GAS6 activation of reporter cell line HEK293_AXL_STAT3-STAT5-AP1 as a function of cell count; assay type: cell-based; settings: GAS6 2 μg/ml; 96-well plate; FIG. 17
# Description: (§2) To generate the reporter cell line HEK293_STAT3-STAT5-AP1_FLuc_AXL, we used three clones of the universal reporter cell line HEK293_STAT3-STAT5-AP1_FLuc: cl. D1, cl. B3 and cl. C4 #2; on the basis of them, we produced, respectively, 3 pools of cells with an embedded constitutionally expressed AXL receptor gene. AXL-mediated activation of these pools was tested. The test was performed in a 96-well culture plate designed for luminescence assays. […] The final volume of the cell suspension in a well was 100 μl, all components of the suspension were prepared in DMEM medium free of fetal bovine serum. After adding all the components, the plate was incubated for 16 hours at 37° C., 5% CO2, and then, using a luminescence assay kit, we measured the luminescence intensity in the wells. The measurement was carried out using a plate reader. The activation level was calculated as the ratio of luminescence level for a given pool in the presence of GAS6 to luminescence level in the absence of GAS6.
# To create the reporter cell line HEK293_AXL_STAT3-STAT5-AP1_FLuc, we used the cell line HEK293_AXL, an AXL overexpresser, on the basis of which we produced a pool of cells comprising a gene encoding firefly luciferase under the control of STAT3-STAT5-AP1 promoter. […] The test was performed in a similar fashion to the procedure described in Example 7, at a concentration of GAS6 of 2 μg/ml. […]
# [5] = test system: HEK293_STAT3-STAT5-AP1_FLuc_AXL cells (AXL receptor); assay: GAS6-dependent AXL-mediated activation of reporter cell line HEK293_STAT3-STAT5-AP1_FLuc_AXL; assay type: cell-based; settings: GAS6 2 μg/ml
# Description: as §2
# B3 and cl. […] D1. […]
# The test was performed similarly to the procedure described in Example 7, we used the cells of the reporter line HEK293_STAT3-STAT5-AP1_FLuc_AXL (cl.13) and GAS6 at a concentration of 2 μg/ml (FIG. 11) for activation; following adding all the components, the plate was incubated for the time shown in the graph, the luminescence intensity in the wells was then determined. […]
molecule,measurement,setting,value
CCCCCCCCCCCCCC(=O)O[C@@H]1[C@@H](C)[C@@]2(O)[C@@H](C=C(CO)C[C@]3(O)C(=O)C(C)=C[C@@H]23)[C@@H]2C(C)(C)[C@]12OC(C)=O [PMA],optimal concentration of the PMA activator,[1],33 nM
AXL ligand GAS6 (from UniProt Q14393 49-678),"level of GAS6-dependent activation, well A1 (fold over non-activated cells)",[2],1.35
same,"level of GAS6-dependent activation, well A2 (fold over non-activated cells)",[2],1.59
same,"level of GAS6-dependent activation, well A3 (fold over non-activated cells)",[2],8.66
same,"level of GAS6-dependent activation, well A4 (fold over non-activated cells)",[2],1.09
same,"level of GAS6-dependent activation, well A6 (fold over non-activated cells)",[2],1.49
same,"level of GAS6-dependent activation, well A7 (fold over non-activated cells)",[2],2.16
same,"level of GAS6-dependent activation, well A8 (fold over non-activated cells)",[2],0.85
same,"level of GAS6-dependent activation, well A9 (fold over non-activated cells)",[2],0.96
same,"level of GAS6-dependent activation, well A10 (fold over non-activated cells)",[2],6.93
same,"level of GAS6-dependent activation, well A11 (fold over non-activated cells)",[2],1.54
same,"level of GAS6-dependent activation, well B1 (fold over non-activated cells)",[2],1.09
same,"level of GAS6-dependent activation, well B2 (fold over non-activated cells)",[2],2.12
same,"level of GAS6-dependent activation, well B3 (fold over non-activated cells)",[2],1.33
same,"level of GAS6-dependent activation, well B4 (fold over non-activated cells)",[2],1.28
same,"level of GAS6-dependent activation, well B5 (fold over non-activated cells)",[2],1.5
same,"level of GAS6-dependent activation, well B6 (fold over non-activated cells)",[2],0.99
same,"level of GAS6-dependent activation, well B7 (fold over non-activated cells)",[2],1.12
same,"level of GAS6-dependent activation, well B8 (fold over non-activated cells)",[2],2.1
same,"level of GAS6-dependent activation, well B9 (fold over non-activated cells)",[2],1.26
same,"level of GAS6-dependent activation, well B10 (fold over non-activated cells)",[2],1.58
same,"level of GAS6-dependent activation, well B11 (fold over non-activated cells)",[2],2.56
same,"level of GAS6-dependent activation, well B12 (fold over non-activated cells)",[2],1.4
same,"level of GAS6-dependent activation, well C1 (fold over non-activated cells)",[2],0.92
same,"level of GAS6-dependent activation, well C2 (fold over non-activated cells)",[2],1.32
same,"level of GAS6-dependent activation, well C3 (fold over non-activated cells)",[2],0.95
same,"level of GAS6-dependent activation, well C4 (fold over non-activated cells)",[2],1.2
same,"level of GAS6-dependent activation, well C5 (fold over non-activated cells)",[2],1.2
same,"level of GAS6-dependent activation, well C6 (fold over non-activated cells)",[2],4.37
same,"level of GAS6-dependent activation, well C8 (fold over non-activated cells)",[2],1.04
same,"level of GAS6-dependent activation, well C9 (fold over non-activated cells)",[2],1.77
same,"level of GAS6-dependent activation, well C10 (fold over non-activated cells)",[2],3.15
same,"level of GAS6-dependent activation, well C11 (fold over non-activated cells)",[2],5.55
same,"level of GAS6-dependent activation, well C12 (fold over non-activated cells)",[2],1.47
same,"level of GAS6-dependent activation, well D1 (fold over non-activated cells)",[2],1.25
same,"level of GAS6-dependent activation, well D2 (fold over non-activated cells)",[2],1.29
same,"level of GAS6-dependent activation, well D3 (fold over non-activated cells)",[2],2.38
same,"level of GAS6-dependent activation, well D4 (fold over non-activated cells)",[2],2.41
same,"level of GAS6-dependent activation, well D5 (fold over non-activated cells)",[2],2.63
same,"level of GAS6-dependent activation, well D6 (fold over non-activated cells)",[2],1.32
same,"level of GAS6-dependent activation, well D7 (fold over non-activated cells)",[2],1.16
same,"level of GAS6-dependent activation, well D8 (fold over non-activated cells)",[2],2.12
same,"level of GAS6-dependent activation, well D9 (fold over non-activated cells)",[2],1.55
same,"level of GAS6-dependent activation, well D10 (fold over non-activated cells)",[2],1.68
same,"level of GAS6-dependent activation, well D11 (fold over non-activated cells)",[2],3.74
same,"level of GAS6-dependent activation, well D12 (fold over non-activated cells)",[2],1.23
same,"level of GAS6-dependent activation, well E1 (fold over non-activated cells)",[2],1.83
same,"level of GAS6-dependent activation, well E2 (fold over non-activated cells)",[2],0.93
same,"level of GAS6-dependent activation, well E3 (fold over non-activated cells)",[2],3.03
same,"level of GAS6-dependent activation, well E4 (fold over non-activated cells)",[2],1.18
same,"level of GAS6-dependent activation, well E5 (fold over non-activated cells)",[2],1.73
same,"level of GAS6-dependent activation, well E6 (fold over non-activated cells)",[2],1.51
same,"level of GAS6-dependent activation, well E7 (fold over non-activated cells)",[2],2.14
same,"level of GAS6-dependent activation, well E8 (fold over non-activated cells)",[2],1.13
same,"level of GAS6-dependent activation, well E9 (fold over non-activated cells)",[2],1.74
same,"level of GAS6-dependent activation, well E10 (fold over non-activated cells)",[2],1.55
same,"level of GAS6-dependent activation, well E11 (fold over non-activated cells)",[2],0.86
same,"level of GAS6-dependent activation, well E12 (fold over non-activated cells)",[2],1.03
same,"level of GAS6-dependent activation, well F1 (fold over non-activated cells)",[2],1.55
same,"level of GAS6-dependent activation, well F2 (fold over non-activated cells)",[2],1.34
same,"level of GAS6-dependent activation, well F3 (fold over non-activated cells)",[2],7.48
same,"level of GAS6-dependent activation, well F4 (fold over non-activated cells)",[2],1.79
same,"level of GAS6-dependent activation, well F5 (fold over non-activated cells)",[2],1.69
same,"level of GAS6-dependent activation, well F7 (fold over non-activated cells)",[2],2.89
same,"level of GAS6-dependent activation, well F8 (fold over non-activated cells)",[2],1.58
same,"level of GAS6-dependent activation, well F9 (fold over non-activated cells)",[2],1.53
same,"level of GAS6-dependent activation, well F10 (fold over non-activated cells)",[2],1.35
same,"level of GAS6-dependent activation, well F11 (fold over non-activated cells)",[2],1.29
same,"level of GAS6-dependent activation, well F12 (fold over non-activated cells)",[2],5.65
same,"level of GAS6-dependent activation, well G1 (fold over non-activated cells)",[2],2.05
same,"level of GAS6-dependent activation, well G2 (fold over non-activated cells)",[2],3.08
same,"level of GAS6-dependent activation, well G3 (fold over non-activated cells)",[2],2.51
same,"level of GAS6-dependent activation, well G4 (fold over non-activated cells)",[2],1.05
same,"level of GAS6-dependent activation, well G5 (fold over non-activated cells)",[2],1.55
same,"level of GAS6-dependent activation, well G7 (fold over non-activated cells)",[2],2.12
same,"level of GAS6-dependent activation, well G8 (fold over non-activated cells)",[2],2.51
same,"level of GAS6-dependent activation, well G9 (fold over non-activated cells)",[2],1.78
same,"level of GAS6-dependent activation, well G10 (fold over non-activated cells)",[2],2.5
same,"level of GAS6-dependent activation, well G11 (fold over non-activated cells)",[2],2.26
same,"level of GAS6-dependent activation, well G12 (fold over non-activated cells)",[2],3.43
same,"level of GAS6-dependent activation, well H11 (the pool) (fold over non-activated cells)",[2],3.61
same,"level of GAS6-dependent activation, well H12 (fold over non-activated cells)",[2],1.94
B1,response of the reporter cell line to IL10 activator,[3],dose-dependent response
B2,cell count per well with the highest level of activation,[4],"25,000-50,000 cells"
same,Level of GAS6-dependent activation (activation relative to non-activated cells),[5]; well H11 = initial pool (based on cl. D1),3.61
same,incubation time with the highest level of activation,"[5]; cl.13, FIG. 11",24 h
